Results reported in paper doi:10.1101/2021.05.10.443397.

Target: clamp-stabilised KoRV envelope (Env-clamp) (koala retrovirus (KoRV-A))
Assay: SEC + other: negative-stain electron microscopy

Substance “clamp-stabilised KoRV envelope (Env-clamp)” has a stoichiometry N of 3.
